Results: patent US20210189005A1 (RALLYBIO IPA, published 2021)
Where two headings read alike, the source gives them in different places.

B1: recombinant monoclonal antibody 26.4 IgG1 (antibody)
heavy: not shown
light: EIVLTQSPATLSLSPGERATLSCRASQSVSSYLAWYQQKPGQAPRLLIYDASKRATGIPARFSGSGSGTDFSLTIRSLEPEDFAVYYCQQRSDWQGLTFGGGTKVEIKRTVAAPSVFIFPPSDEQLKSGTASVVCLLNNFYPREAKVQWKVDNALQSGNSQESVTEQDSKDSTYSLSSTLTLSKADYEKHKVYACEVTHQGLSSPVTKSFNRGEC
notes: also called 26.4G1
B2: mouse monoclonal antibody SZ21 (antibody, V domains shown)
VH: LQESGPELVNPGASMKISCKASGYSFTGYTMNWVKQSHGKNLEWIGLINPYHGGSSYNQKFKGKATLTVDKSSSTAYMELLSLTSEDSAVYFCARRDANYVFFFDYWGQGTTVT
VL: ELTQSPALMSASPGEKVTMTCSASSGVSYIHWYQQKSGTSPKRWIYDTSKLASGVPARFSGSGSGTSYSLTISSMEAEDAATYYCQQWSSKPPTFGGGTKLE
notes: Bought murine mAb; variable regions as in Genebank AF354053 and AF354054 (the printed entries look truncated at both ends); also called clone SZ21; anti-β3 mAb (clone SZ21)
B3: human HPA-1a-specific recombinant monoclonal antibody B2G1 (antibody, V domains shown)
VH: QVQLVQSGAEVKRPGAAVKVSCKASGYRFTGHYMHWVRQAPGQGLEWMGWINPNSGGTSYAQKFQGRVTMTRDTSISTAYMEMTRLRYDDTAVYYCAAGGLGGYYYYAMNIWGQGTTVTVSS
VL: QSALTQPASVSGSPGQSITISCTGTSSDVGGYNYVSWYQQHPGKAPKLMIYEVSNRPSGVSNRFSGSKSGNTASLTISGLQAEDEADYYCSSYTSSSTWVFGGGTKLTVL
notes: Generated by phage display and produced recombinantly as a human IgG detected by anti-human IgG; also called clone B2G1
B4: mAb 26.4 F(ab')2 fragment (other)
VH: QVQLQQSGPGLVKPSQTLSLTCAISGDSVSSNSAAWNWIRQSPSRGLEWLGRTYFRSNWYNDYAASVKSRITINQDTSKNQLSLQLNSVTPEDTAMYYCARDGAWGGSSWWPGLPHHYYSGMDVWGQGTTVTVSS
VL: EIVLTQSPATLSLSPGERATLSCRASQSVSSYLAWYQQKPGQAPRLLIYDASKRATGIPARFSGSGSGTDFSLTIRSLEPEDFAVYYCQQRSDWQGLTFGGGTKVEIK

How the values were obtained:
[1] = target: T1, GPVI (hDID2) negative control peptide (UniProt Q9HCN6 21-205); test: domain-deletion peptide ELISA
T1 construct: domain: hDID2; also called peptide negative control
T1 sequence (looked up): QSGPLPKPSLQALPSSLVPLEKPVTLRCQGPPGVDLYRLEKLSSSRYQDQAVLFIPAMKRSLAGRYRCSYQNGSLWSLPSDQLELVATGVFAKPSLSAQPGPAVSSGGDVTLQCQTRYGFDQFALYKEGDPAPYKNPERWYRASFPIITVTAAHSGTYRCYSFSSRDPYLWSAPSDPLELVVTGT
Experimental: Murine and human mAbs were used at concentrations of 1 and 10 μg/ml. MAb binding was detected by HRP-conjugated goat-anti-mouse IgG or HRP-conjugated goat-anti-human IgG. Absorbance at 492 nm was read on an microplate photometer (Multiskan E X, Thermo Scientific, Waltham, Mass.).

[2] = target: T2, integrin αVβ3 (vitronectin receptor) purified from human placenta (human, UniProt P06756 31-1048; P05106 27-788); test: SPR, 120 s dissociation, average of three concentrations
T2 construct: mature; Amine-coupled to a CM5 chip at 480 RU for SPR; also called purified αVβ3; Millipore CC1018
T2 sequence (P06756 31-1048, form in doubt, chain 1 of 2): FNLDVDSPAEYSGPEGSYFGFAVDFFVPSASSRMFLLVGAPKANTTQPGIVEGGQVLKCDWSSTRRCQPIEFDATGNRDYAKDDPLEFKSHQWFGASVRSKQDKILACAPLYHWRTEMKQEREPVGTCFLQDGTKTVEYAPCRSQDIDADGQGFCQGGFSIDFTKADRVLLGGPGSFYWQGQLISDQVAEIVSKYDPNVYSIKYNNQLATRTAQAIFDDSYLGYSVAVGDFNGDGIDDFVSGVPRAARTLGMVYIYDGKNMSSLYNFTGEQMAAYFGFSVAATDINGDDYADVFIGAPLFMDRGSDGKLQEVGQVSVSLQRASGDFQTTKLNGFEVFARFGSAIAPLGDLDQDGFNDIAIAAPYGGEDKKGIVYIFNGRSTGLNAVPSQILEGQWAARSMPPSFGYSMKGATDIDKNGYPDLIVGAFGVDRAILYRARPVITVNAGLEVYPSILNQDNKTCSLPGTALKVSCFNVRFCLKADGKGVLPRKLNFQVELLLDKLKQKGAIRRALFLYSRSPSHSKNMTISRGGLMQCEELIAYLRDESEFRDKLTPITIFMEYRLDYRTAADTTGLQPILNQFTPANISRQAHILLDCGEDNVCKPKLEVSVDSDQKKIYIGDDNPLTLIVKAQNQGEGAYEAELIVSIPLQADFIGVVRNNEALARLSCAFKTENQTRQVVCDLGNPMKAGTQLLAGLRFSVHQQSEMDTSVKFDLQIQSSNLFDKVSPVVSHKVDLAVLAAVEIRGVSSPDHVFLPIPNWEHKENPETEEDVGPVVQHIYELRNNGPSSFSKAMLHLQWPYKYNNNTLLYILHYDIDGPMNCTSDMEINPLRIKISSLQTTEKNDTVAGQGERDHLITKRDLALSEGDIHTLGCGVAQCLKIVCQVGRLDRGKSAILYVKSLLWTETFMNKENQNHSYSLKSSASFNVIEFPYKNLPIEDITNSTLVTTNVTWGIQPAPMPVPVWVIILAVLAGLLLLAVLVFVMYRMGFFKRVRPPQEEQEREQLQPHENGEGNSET
T2 sequence (P05106 27-788, form in doubt, chain 2 of 2): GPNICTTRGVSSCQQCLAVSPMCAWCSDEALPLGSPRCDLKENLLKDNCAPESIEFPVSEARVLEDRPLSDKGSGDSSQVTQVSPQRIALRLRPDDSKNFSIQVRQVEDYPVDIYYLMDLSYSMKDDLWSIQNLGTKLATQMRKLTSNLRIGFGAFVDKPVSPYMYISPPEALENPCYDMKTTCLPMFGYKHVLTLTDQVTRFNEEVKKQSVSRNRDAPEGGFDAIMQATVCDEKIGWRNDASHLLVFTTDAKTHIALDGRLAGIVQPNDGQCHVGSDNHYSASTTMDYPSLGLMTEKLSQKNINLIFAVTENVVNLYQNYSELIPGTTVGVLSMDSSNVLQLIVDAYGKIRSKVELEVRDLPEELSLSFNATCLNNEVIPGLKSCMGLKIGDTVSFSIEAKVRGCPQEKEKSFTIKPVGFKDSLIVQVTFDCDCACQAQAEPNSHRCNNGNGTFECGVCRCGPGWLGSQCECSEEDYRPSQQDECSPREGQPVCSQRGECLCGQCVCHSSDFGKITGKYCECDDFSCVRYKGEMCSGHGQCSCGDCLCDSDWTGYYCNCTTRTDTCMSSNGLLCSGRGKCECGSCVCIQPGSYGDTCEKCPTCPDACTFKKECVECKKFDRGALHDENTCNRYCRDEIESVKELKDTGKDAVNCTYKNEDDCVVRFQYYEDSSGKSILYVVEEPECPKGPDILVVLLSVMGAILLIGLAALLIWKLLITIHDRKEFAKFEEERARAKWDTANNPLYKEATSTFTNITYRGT
Experimental: (§1) MAb samples were used in three different concentrations (20 μg/ml, 10 μg/ml and 5 μg/ml); the highest concentration is shown. Results are representative of the two independent experiments. […] Data presented are average RU generated by injection of three different concentrations of mAbs (20 μg/ml, 10 μg/ml and 5 g/ml). […] The percentage of antibody bound at the end of the dissociation phase was calculated by dividing the RU at the end of dissociation period by the RU at the end of association period multiplied by 100%. Data presented are average percentage calculated from three different concentrations for each mAb.
(§2) SPR technology was used to assess the binding properties of the mAbs (Biacore T200 instrument, Biacore AB, Uppsala, Sweden). […] The integrin αVβ3 was obtained from Millipore (cat. No: CC1018). The integrin αVβ3 was purified from human placenta by affinity chromatography using immobilized monoclonal antibodies to αVβ3 integrin. […] The purified βllbβ3 integrins (HPA-1a and HPA-1b antigen carrying versions) and αVβ3 were immobilized to the surface of a CM5 sensor chip on three different flow cells (FCs) at a density of 400, 340 and 480 response units (RU) respectively using standard amine coupling chemistry.

[3] = target: T3, purified integrin αIIbβ3 from HPA-1aa platelets (HPA-1a antigen carrying version) (human, UniProt P08514 32-1039; P05106 27-788); test: as above
T3 construct: mature; Amine-coupled to a CM5 chip at 400 RU for SPR; also called αIIbβ3 (HPA-1a); αIIbβ3 from HPA-1aa individuals
T3 sequence (P08514 32-1039, form in doubt, chain 1 of 2): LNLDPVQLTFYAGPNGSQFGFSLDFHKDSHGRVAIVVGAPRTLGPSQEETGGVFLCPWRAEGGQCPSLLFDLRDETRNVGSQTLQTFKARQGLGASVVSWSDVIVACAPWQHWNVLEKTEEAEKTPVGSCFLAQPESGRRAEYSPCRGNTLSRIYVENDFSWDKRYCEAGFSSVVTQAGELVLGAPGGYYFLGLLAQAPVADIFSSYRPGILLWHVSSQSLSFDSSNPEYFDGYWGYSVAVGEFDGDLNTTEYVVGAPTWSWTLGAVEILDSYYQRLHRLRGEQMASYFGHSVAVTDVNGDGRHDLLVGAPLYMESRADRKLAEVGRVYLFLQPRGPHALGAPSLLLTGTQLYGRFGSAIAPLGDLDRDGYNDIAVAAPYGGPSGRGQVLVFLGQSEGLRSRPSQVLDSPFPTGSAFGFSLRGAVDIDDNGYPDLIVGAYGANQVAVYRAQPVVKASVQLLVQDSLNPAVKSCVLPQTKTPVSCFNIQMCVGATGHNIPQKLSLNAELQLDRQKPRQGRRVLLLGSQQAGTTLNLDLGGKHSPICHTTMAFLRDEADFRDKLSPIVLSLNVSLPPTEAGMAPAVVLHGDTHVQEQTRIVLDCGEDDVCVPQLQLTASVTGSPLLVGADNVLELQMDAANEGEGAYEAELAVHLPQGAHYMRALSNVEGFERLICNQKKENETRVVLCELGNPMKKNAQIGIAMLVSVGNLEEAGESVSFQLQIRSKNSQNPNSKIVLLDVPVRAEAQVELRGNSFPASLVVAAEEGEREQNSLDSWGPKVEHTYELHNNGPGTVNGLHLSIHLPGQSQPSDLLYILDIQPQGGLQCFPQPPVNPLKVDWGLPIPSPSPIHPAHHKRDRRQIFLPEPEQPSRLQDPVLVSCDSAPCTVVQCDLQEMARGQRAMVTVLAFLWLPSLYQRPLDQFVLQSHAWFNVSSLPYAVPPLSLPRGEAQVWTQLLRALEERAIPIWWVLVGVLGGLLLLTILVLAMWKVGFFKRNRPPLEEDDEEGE
T3 sequence (P05106 27-788, form in doubt, chain 2 of 2): as the sequence (P05106 27-788, form in doubt, chain 2 of 2) above
Experimental: as §1, §2

[4] = target: T2, integrin αVβ3 (vitronectin receptor) …; test: SPR (Biacore T200), integrin amine-coupled to CM5 chip, antibody injected 120 s
Experimental: (§3) The percentage of antibody bound at the end of the dissociation phase was calculated by dividing the RU at the end of dissociation period by the RU at the end of association period multiplied by 100%. Data presented are average percentage calculated from three different concentrations for each mAb.
(§4) SPR technology was used to assess the binding properties of the mAbs (Biacore T200 instrument, Biacore AB, Uppsala, Sweden). […] The purified βllbβ3 integrins (HPA-1a and HPA-1b antigen carrying versions) and αVβ3 were immobilized to the surface of a CM5 sensor chip on three different flow cells (FCs) at a density of 400, 340 and 480 response units (RU) respectively using standard amine coupling chemistry. An FC treated with the same chemicals but without protein was used as a reference surface. Purified monoclonal IgG samples (various concentrations) were injected over the chip surface at a flow rate of 30 μl/min. An association step of 120 sec was followed by a dissociation step of 120 sec. Regeneration of the sensor chip surface was accomplished using 10 mM Glycine-HCl (pH 1.5). The experiments were performed at 25° C. The collected data were analysed using BiaEvaluation 2.0.1 software. […] All chemicals for the Biacore experiment were purchased from GE Healthcare.

[5] = target: T3, purified integrin αIIbβ3 from HPA-1aa …; test: as above
Experimental: as §3, §4

[6] = target: T2, integrin αVβ3 (vitronectin receptor) …; test: SPR (Biacore T200), integrin amine-coupled to CM5 chip, after 120 s dissociation
Experimental: as §1, §2

[7] = target: T3, purified integrin αIIbβ3 from HPA-1aa …; test: as above
Experimental: as §1, §2

[8] = target: T1, GPVI (hDID2) negative control peptide; test: domain-deletion peptide ELISA; remark: listed apart in the source
[9] = target: T4, integrin αIIbβ3 (glycoprotein IIbIIIa) bearing HPA-1a (Leu33) on intact HPA-1a-positive platelets (human, UniProt P08514 32-1039; P05106 27-788); test: MAIPA inhibition assay on HPA-1aa platelets; blocked antibodies: polyclonal anti-HPA-1a IgG of 10 donor sera
T4 construct: whole, on cells; HPA-1ab platelets carry both allotypes; results on them are marked in the row; also called HPA-1aa platelets; HPA-1a homozygous platelets
T4 sequence (P08514 32-1039, chain 1 of 2): as the sequence (P08514 32-1039, form in doubt, chain 1 of 2) above
T4 sequence (P05106 27-788, chain 2 of 2): as the sequence (P05106 27-788, form in doubt, chain 2 of 2) above

Binder	binding result [1]	% remaining bound at the end of the dissociation period [2] [%]	% remaining bound at the end of the dissociation period [3] [%]	bound (RU) [4] [RU]	bound (RU) [5] [RU]	% dissociated [6] [%]	bound after dissociation (RU) [6] [RU]	% dissociated [7] [%]	bound after dissociation (RU) [7] [RU]	binding result [8]	IC50 (read off the curve) [9] [µg/50 µl]
B1	no binding (tested: 10 µg/ml)	66.8	~81	18.8	63.1	35.1	12.2	21.4	49.6		
B2										no binding (tested: 10 µg/ml)	
B3	no binding (tested: 10 µg/ml)	31.4	~81	11.2	56.1	70.5	3.3	22	43.8		
B4											~5
